Target: (His)6-Raf-1 protein (UniProt P04049)
Assay: totally cell-free pull-down, anti-Raf-1 immunoblot, densitometry

% binding to Raf-1 proteins (of the positive control): 0 to 10%
B1: FLAG-HMK-IL-2Rβ chain containing only the proline rich C-terminal (CT+) (receptor, not shown: small tags and cut ends)
chain: QPLSGEDDAYCTFPSRDDLLLFSPSLLGGPSPPSTAPGGSGAGEERMPPSLQERVPRDWDPQPLGPPTPGVPDLVDFQPPPELVLREAGEEVPDAGPREGVSFPWSRPPGQGEFRALNARLPLNTDAYLSLQELQGQDPTHLV
